# Reference: article PMC12098869, “An mRNA-display derived cyclic peptide scaffold reveals the substrate binding interactions of an N-terminal cysteine oxidase” (Nature Communications, 2025)
# Values joined by “and” are separate entries in the source; they are usually repeats but may differ in a detail not shown here. Equal values may be shown once. Bridges are numbered along the chain shown (N, C = ends). Where no end group is shown, it is not given here.
# What was measured:
# [1] = target: T1, 2-aminoethanethiol dioxygenase (ADO), full-length human, N-terminally His-tagged and biotinylated … (human, UniProt Q96SZ5 1-270, biotin (biotinylated during expression, 0.2 mM biotin added)); experiment: SPR; single-cycle kinetics (1:1 binding model); biotinylated ADO immobilised on a Biotin CAP chip (~2500-3000 RU), cyclic peptide injected; Biacore T200, 4 °C; 20 mM HEPES pH 7.5, 500 mM NaCl, 10 mM DTT, 0.1% tween-20; 50 µL/minute; each cell is one of three independent measurements; settings: both partners purified
# T1 construct: 2-aminoethanethiol dioxygenase (ADO), human, UniProt Q96SZ5, full length; Immobilised through its biotin on a Biotin CAP chip for SPR; also called wild type ADO; Biotinylated-ADO; source: E. coli Rosetta2(DE3), purified (Ni-NTA, SEC); not shown: biotinylation tag (from the vector pQE80L-Navi), N-terminal, kept
# T1 sequence (looked up): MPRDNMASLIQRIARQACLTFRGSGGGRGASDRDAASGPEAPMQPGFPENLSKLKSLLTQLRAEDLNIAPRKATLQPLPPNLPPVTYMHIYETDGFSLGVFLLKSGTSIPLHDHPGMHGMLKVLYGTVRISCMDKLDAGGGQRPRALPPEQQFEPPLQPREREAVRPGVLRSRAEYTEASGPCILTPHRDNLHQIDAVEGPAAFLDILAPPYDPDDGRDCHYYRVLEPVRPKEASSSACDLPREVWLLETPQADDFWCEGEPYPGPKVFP
# [2] = target: 2-aminoethanethiol dioxygenase (ADO), wild type, biotinylated (pQE80L-Navi-ADO) (human); experiment: SPR; single-cycle kinetics (SCK), 1:1 binding model; biotinylated ADO or variant immobilised on a Biotin CAP chip, peptide injected at 25.6, 64, 160, 400, 1000 nM; 4 °C; 20 mM HEPES pH 7.5, 500 mM NaCl, 10 mM DTT, 0.1% (v/v) tween-20; 50 μL/minute
# [3] = target: 2-aminoethanethiol dioxygenase (ADO), full-length human, N-terminally His-tagged and biotinylated (pQE80L-Navi-ADO) (human) (UniProt Q96SZ5)
# [4] = target: 2-aminoethanethiol dioxygenase (ADO), wild type, biotinylated (pQE80L-Navi-ADO) (human)
# [5] = target: T2, 2-aminoethanethiol dioxygenase (ADO), wild type, biotinylated (pQE80L-Navi-ADO) (human, biotin on the Avi tag); experiment: SPR; single-cycle kinetics (SCK), 1:1 binding model; biotinylated ADO or variant immobilised on a Biotin CAP chip, peptide injected at 25.6, 64, 160, 400, 1000 nM; 4 °C; 20 mM HEPES pH 7.5, 500 mM NaCl, 10 mM DTT, 0.1% (v/v) tween-20; 50 μL/minute; settings: both partners purified
# T2 construct: 2-aminoethanethiol dioxygenase (ADO), human, full length; also called Biotinylated-ADO; source: E. coli Rosetta2(DE3), purified (Ni-NTA, SEC); not shown: Avi tag, N-terminal, kept; His6, N-terminal, kept
# T2 chain: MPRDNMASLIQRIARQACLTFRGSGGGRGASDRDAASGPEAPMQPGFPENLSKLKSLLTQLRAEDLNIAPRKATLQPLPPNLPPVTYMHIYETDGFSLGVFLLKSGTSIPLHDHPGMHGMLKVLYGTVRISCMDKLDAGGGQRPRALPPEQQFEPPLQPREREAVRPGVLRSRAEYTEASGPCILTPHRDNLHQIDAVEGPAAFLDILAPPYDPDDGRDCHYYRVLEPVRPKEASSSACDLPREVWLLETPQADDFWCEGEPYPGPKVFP
# [6] = target: T3, 2-aminoethanethiol dioxygenase (ADO), full-length human, N-terminally His-tagged and biotinylated … (human, UniProt Q96SZ5 1-270, biotin (biotinylated during expression, 0.2 mM biotin added)); experiment: cell-based or functional assay
# T3 sequence (looked up): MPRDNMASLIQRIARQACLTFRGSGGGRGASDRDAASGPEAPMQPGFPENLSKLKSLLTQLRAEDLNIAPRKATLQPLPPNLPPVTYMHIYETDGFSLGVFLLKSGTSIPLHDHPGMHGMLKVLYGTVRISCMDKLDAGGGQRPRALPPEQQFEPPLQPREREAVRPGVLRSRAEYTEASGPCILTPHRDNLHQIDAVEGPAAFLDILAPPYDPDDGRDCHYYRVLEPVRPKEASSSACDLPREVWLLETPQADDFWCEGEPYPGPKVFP
binder,measurement,setting,value
"{CH2CO}-YIVKTSWLGSHRQC (thioether N-14, the substitution F6S is to be applied to them; Single amino acid substituent of CP6; source: synthetic peptide) [CP6-F6S]",Kd,[1],5.8 nM and 5.64 nM and 5.96 nM
same,Kd,[2],5.8 nM
same,IC50 of inhibition of ADO activity,[3],200 nM
same,IC50 of inhibition of ADO activity (oxidation of RGS5 (2-15) followed by LCMS; enzyme from the pET28a-ADO construct); blocks ADO with RGS5 (2-15),[4],0.19 µM
"{CH2CO}-YIVKTFWLGSHRQC-NH2 (thioether N-14; SMILES CC[C@H](C)[C@@H]1NC(=O)[C@H](Cc2ccc(O)cc2)NC(=O)CSC[C@@H](C(N)=O)NC(=O)[C@H](CCC(N)=O)NC(=O)[C@H](CCCNC(=N)N)NC(=O)[C@H](Cc2c[nH]cn2)NC(=O)[C@H](CO)NC(=O)CNC(=O)[C@H](CC(C)C)NC(=O)[C@H](Cc2c[nH]c3ccccc23)NC(=O)[C@H](Cc2ccccc2)NC(=O)[C@H]([C@@H](C)O)NC(=O)[C@H](CCCCN)NC(=O)[C@H](C(C)C)NC1=O, selected by RaPID mRNA display against ADO; also called ADO-L-06; source: synthetic peptide (Fmoc-SPPS)) [cyclic peptide CP6]",Kd,[5],30 nM
{CH2CO}-YIVATFWLGSHRQC (thioether N-14) [CP6-K4A],IC50 of inhibition of ADO activity,[6],21000 nM
